Earlier results, collected in PMC4426669.

Molecular target: eIF2B1 (Homo sapiens) (UniProt Q14232)

- Kd: < 1 nM
Substance: eIF2B1 (from UniProt Q14232)
